The results in this text go back to patent US20210008162A1 (OP T, published 2021).

In assay [1] the target is T1, mouse CD40 on cells (CD40+ T cells / Th40 cells and B cells of NOD mice; mouse CD4+CD40+ cells in culture) (mouse, UniProt P27512 20-289).
T1 construct: whole, on cells; The target is inferred from CD40+ cells; No purified CD40 was tested; also called CD40 protein
T1 sequence (looked up): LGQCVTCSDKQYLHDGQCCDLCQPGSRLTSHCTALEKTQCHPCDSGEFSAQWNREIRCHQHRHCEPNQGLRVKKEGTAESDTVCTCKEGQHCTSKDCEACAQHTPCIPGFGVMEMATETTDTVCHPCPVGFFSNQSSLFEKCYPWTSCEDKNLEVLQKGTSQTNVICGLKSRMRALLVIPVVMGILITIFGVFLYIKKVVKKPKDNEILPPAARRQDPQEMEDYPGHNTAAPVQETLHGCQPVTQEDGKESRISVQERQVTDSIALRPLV
Nature of the assay: KGYY-15 bound to live CD4+CD40+ cells kept in culture for 10 days, percent bound over days post treatment; the text says 'human or mouse' cells.

Assay [2] deals with T2, human CD40 on CD4+CD40+ cells (human, UniProt P25942 21-277).
T2 construct: whole, on cells
T2 sequence (P25942 21-277): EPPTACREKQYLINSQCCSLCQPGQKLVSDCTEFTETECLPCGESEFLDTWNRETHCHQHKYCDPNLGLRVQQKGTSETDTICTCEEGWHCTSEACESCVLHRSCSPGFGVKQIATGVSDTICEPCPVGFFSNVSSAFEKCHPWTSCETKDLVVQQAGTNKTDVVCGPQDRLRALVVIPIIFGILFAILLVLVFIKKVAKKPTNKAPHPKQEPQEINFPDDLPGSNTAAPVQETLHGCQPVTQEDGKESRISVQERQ
The description is as above.

Where no end group is shown, it is not given here.

B1: KGYY-15 (SEQ ID NO:11) (peptide)
peptide: VLQWAKKGYYTMKSN-NH2
notes: also called 15-mer-Form 1
On to B1, for which the binding result in assay [1] and in assay [2] was “binds” throughout.
